According to patent publication US20240270846A1 (published 2024):
Substitutions are numbered along the chain they refer to. Names and notes keep the numbering of the source.

B1: GLS3000 V94P one-amino acid altered one-arm antibody (CE115HA000-pE22Hh / Kn010G3 / GLS3000 V94P-kappa) (antibody, human IgG1, kappa, L234A L235A, N297A, name in Kabat numbering)
heavy: QVQLVESGGGVVQPGRSLRLSCAASGFTFSNAWMHWVRQAPGKGLEWVAQIKAKSNNYATYYAESVKGRFTISRDDSKNSLYLQMNSLKTEDTAVYYCRYVHYGAYYGVDAWGQGTTVTVSSASTKGPSVFPLAPSSKSTSGGTAALGCLVKDYFPEPVTVSWNSGALTSGVHTFPAVLQSSGLYSLSSVVTVPSSSLGTQTYICNVNHKPSNTKVDKKVEPKSCDKTHTCPPCPAPEAAGGPSVFLFPPKPKDTLMISRTPEVTCVVVDVSHEDPEVKFNWYVDGVEVHNAKTKPREEQYASTYRVVSVLTVLHQDWLNGKEYKCKVSNKALPAPIEKTISKAKGQPREPQVYTLPPSRCELTKNQVSLSCAVKGFYPSDIAVEWESNGQPENNYKTTPPVLDSDGSFFLVSKLTVDKSRWQQGNVFSCSVMHEALHNHYTQKSLSLSPDYKDDDDK
chain: EPKSSDKTHTCPPCPAPELLGGPSVFLFPPKPKDTLMISRTPEVTCVVVDVSHEDPEVKFNWYVDGVEVHNAKTKPREEQYNSTYRVVSVLTVLHQDWLNGKEYKCKVSNKALPAPIEKTISKAKGQPREPQVCTLPPSRDELTKNQVSLWCLVKGFYPSDIAVEWESNGQPENNYKTTPPVLDSDGSFFLYSKLTVDKSRWQQGNVFSCSVMHEALHNRYTQKSLSLSP
light: DIVMTQSPLSLPVTPGEPASISCRSSQSLVHSNRNTYLHWYQQKPGQAPRLLIYKVSNRFSGVPDRFSGSGSGTDFTLKISRVEAEDVGVYYCGQGTQPPYTFGQGTKLEIKRTVAAPSVFIFPPSDEQLKSGTASVVCLLNNFYPREAKVQWKVDNALQSGNSQESVTEQDSKDSTYSLSSTLTLSKADYEKHKVYACEVTHQGLSSPVTKSFNRGEC
notes: One-arm antibody; substitution position in Kabat numbering; also called L chain altered form, Kabat 94 V to P
B2: GLS3000 G89P one-amino acid altered one-arm antibody (CE115HA000-pE22Hh / Kn010G3 / GLS3000 G89P-kappa) (antibody, human IgG1, kappa, L234A L235A, N297A, name in Kabat numbering)
heavy: B1 heavy
chain: B1 chain
light: B1 light with G94P, P99V
notes: One-arm antibody; substitution position in Kabat numbering; also called L chain altered form, Kabat 89 G to P
B3: GLS3000 G89Q one-amino acid altered one-arm antibody (CE115HA000-pE22Hh / Kn010G3 / GLS3000 G89Q-kappa) (antibody, human IgG1, kappa, L234A L235A, N297A, name in Kabat numbering)
heavy: B1 heavy
chain: B1 chain
light: B1 light with G94Q, P99V
notes: One-arm antibody; substitution position in Kabat numbering; also called L chain altered form, Kabat 89 G to Q
B4: GLS3000 G89T one-amino acid altered one-arm antibody (CE115HA000-pE22Hh / Kn010G3 / GLS3000 G89T-kappa) (antibody, human IgG1, kappa, L234A L235A, N297A, name in Kabat numbering)
heavy: B1 heavy
chain: B1 chain
light: B1 light with G94T, P99V
notes: One-arm antibody; substitution position in Kabat numbering; also called L chain altered form, Kabat 89 G to T
B5: GLS3000 G89V one-amino acid altered one-arm antibody (CE115HA000-pE22Hh / Kn010G3 / GLS3000 G89V-kappa) (antibody, human IgG1, kappa, L234A L235A, N297A, name in Kabat numbering)
heavy: B1 heavy
chain: B1 chain
light: B1 light with G94V, P99V
notes: One-arm antibody; substitution position in Kabat numbering; also called L chain altered form, Kabat 89 G to V
B6: GLS3000 G89W one-amino acid altered one-arm antibody (CE115HA000-pE22Hh / Kn010G3 / GLS3000 G89W-kappa) (antibody, human IgG1, kappa, L234A L235A, N297A, name in Kabat numbering)
heavy: B1 heavy
chain: B1 chain
light: B1 light with G94W, P99V
notes: One-arm antibody; substitution position in Kabat numbering; also called L chain altered form, Kabat 89 G to W
B7: GLS3000 G89Y one-amino acid altered one-arm antibody (CE115HA000-pE22Hh / Kn010G3 / GLS3000 G89Y-kappa) (antibody, human IgG1, kappa, L234A L235A, N297A, name in Kabat numbering)
heavy: B1 heavy
chain: B1 chain
light: B1 light with G94Y, P99V
notes: One-arm antibody; substitution position in Kabat numbering; also called L chain altered form, Kabat 89 G to Y
B8: GLS3000 G91P one-amino acid altered one-arm antibody (CE115HA000-pE22Hh / Kn010G3 / GLS3000 G91P-kappa) (antibody, human IgG1, kappa, L234A L235A, N297A, name in Kabat numbering)
heavy: B1 heavy
chain: B1 chain
light: B1 light with G96P, P99V
notes: One-arm antibody; substitution position in Kabat numbering; also called L chain altered form, Kabat 91 G to P
B9: GLS3000 G91T one-amino acid altered one-arm antibody (CE115HA000-pE22Hh / Kn010G3 / GLS3000 G91T-kappa) (antibody, human IgG1, kappa, L234A L235A, N297A, name in Kabat numbering)
heavy: B1 heavy
chain: B1 chain
light: B1 light with G96T, P99V
notes: One-arm antibody; substitution position in Kabat numbering; also called L chain altered form, Kabat 91 G to T
B10: GLS3000 G91Y one-amino acid altered one-arm antibody (CE115HA000-pE22Hh / Kn010G3 / GLS3000 G91Y-kappa) (antibody, human IgG1, kappa, L234A L235A, N297A, name in Kabat numbering)
heavy: B1 heavy
chain: B1 chain
light: B1 light with G96Y, P99V
notes: One-arm antibody; substitution position in Kabat numbering; also called L chain altered form, Kabat 91 G to Y
B11: GLS3000 K74T one-amino acid altered one-arm antibody (CE115HA000-pE22Hh / Kn010G3 / GLS3000 K74T-kappa) (antibody, human IgG1, kappa, L234A L235A, N297A, name in Kabat numbering)
heavy: B1 heavy
chain: B1 chain
light: B1 light with K79T, P99V
notes: One-arm antibody; substitution position in Kabat numbering; also called L chain altered form, Kabat 74 K to T
B12: GLS3000 P95S one-amino acid altered one-arm antibody (CE115HA000-pE22Hh / Kn010G3 / GLS3000 P95S-kappa) (antibody, human IgG1, kappa, L234A L235A, N297A, name in Kabat numbering)
heavy: B1 heavy
chain: B1 chain
light: B1 light with P99V, P100S
notes: One-arm antibody; substitution position in Kabat numbering; also called L chain altered form, Kabat 95 P to S
B13: GLS3000 Q90P one-amino acid altered one-arm antibody (CE115HA000-pE22Hh / Kn010G3 / GLS3000 Q90P-kappa) (antibody, human IgG1, kappa, L234A L235A, N297A, name in Kabat numbering)
heavy: B1 heavy
chain: B1 chain
light: B1 light with Q95P, P99V
notes: One-arm antibody; substitution position in Kabat numbering; also called L chain altered form, Kabat 90 Q to P
B14: GLS3000 Q90S one-amino acid altered one-arm antibody (CE115HA000-pE22Hh / Kn010G3 / GLS3000 Q90S-kappa) (antibody, human IgG1, kappa, L234A L235A, N297A, name in Kabat numbering)
heavy: B1 heavy
chain: B1 chain
light: B1 light with Q95S, P99V
notes: One-arm antibody; substitution position in Kabat numbering; also called L chain altered form, Kabat 90 Q to S
B15: GLS3000 Q90Y one-amino acid altered one-arm antibody (CE115HA000-pE22Hh / Kn010G3 / GLS3000 Q90Y-kappa) (antibody, human IgG1, kappa, L234A L235A, N297A, name in Kabat numbering)
heavy: B1 heavy
chain: B1 chain
light: B1 light with Q95Y, P99V
notes: One-arm antibody; substitution position in Kabat numbering; also called L chain altered form, Kabat 90 Q to Y
B16: GLS3000 Q93P one-amino acid altered one-arm antibody (CE115HA000-pE22Hh / Kn010G3 / GLS3000 Q93P-kappa) (antibody, human IgG1, kappa, L234A L235A, N297A, name in Kabat numbering)
heavy: B1 heavy
chain: B1 chain
light: B1 light with Q98P, P99V
notes: One-arm antibody; substitution position in Kabat numbering; also called L chain altered form, Kabat 93 Q to P
B17: GLS3000 Q93R one-amino acid altered one-arm antibody (CE115HA000-pE22Hh / Kn010G3 / GLS3000 Q93R-kappa) (antibody, human IgG1, kappa, L234A L235A, N297A, name in Kabat numbering)
heavy: B1 heavy
chain: B1 chain
light: B1 light with Q98R, P99V
notes: One-arm antibody; substitution position in Kabat numbering; also called L chain altered form, Kabat 93 Q to R
B18: GLS3000 Q93S one-amino acid altered one-arm antibody (CE115HA000-pE22Hh / Kn010G3 / GLS3000 Q93S-kappa) (antibody, human IgG1, kappa, L234A L235A, N297A, name in Kabat numbering)
heavy: B1 heavy
chain: B1 chain
light: B1 light with Q98S, P99V
notes: One-arm antibody; substitution position in Kabat numbering; also called L chain altered form, Kabat 93 Q to S
B19: GLS3000 Q93Y one-amino acid altered one-arm antibody (CE115HA000-pE22Hh / Kn010G3 / GLS3000 Q93Y-kappa) (antibody, human IgG1, kappa, L234A L235A, N297A, name in Kabat numbering)
heavy: B1 heavy
chain: B1 chain
light: B1 light with Q98Y, P99V
notes: One-arm antibody; substitution position in Kabat numbering; also called L chain altered form, Kabat 93 Q to Y
B20: GLS3000 R77S one-amino acid altered one-arm antibody (CE115HA000-pE22Hh / Kn010G3 / GLS3000 R77S-kappa) (antibody, human IgG1, kappa, L234A L235A, N297A, name in Kabat numbering)
heavy: B1 heavy
chain: B1 chain
light: B1 light with R82S, P99V
notes: One-arm antibody; substitution position in Kabat numbering; also called L chain altered form, Kabat 77 R to S
B21: GLS3000 T92P one-amino acid altered one-arm antibody (CE115HA000-pE22Hh / Kn010G3 / GLS3000 T92P-kappa) (antibody, human IgG1, kappa, L234A L235A, N297A, name in Kabat numbering)
heavy: B1 heavy
chain: B1 chain
light: B1 light with T97P, P99V
notes: One-arm antibody; substitution position in Kabat numbering; also called L chain altered form, Kabat 92 T to P
B22: GLS3000 T92S one-amino acid altered one-arm antibody (CE115HA000-pE22Hh / Kn010G3 / GLS3000 T92S-kappa) (antibody, human IgG1, kappa, L234A L235A, N297A, name in Kabat numbering)
heavy: B1 heavy
chain: B1 chain
light: B1 light with T97S, P99V
notes: One-arm antibody; substitution position in Kabat numbering; also called L chain altered form, Kabat 92 T to S

These binders were tested against T1, CD3 epsilon homodimer protein (UniProt P07766 23-126) (assay: SPR Biacore T200, CD3 epsilon homodimer immobilised on CM4, one-arm antibody as analyte, single-cycle kinetics; reference unaltered GLS3000 antibody;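 also: CD3 epsilon homodimer attached to the CM4 chip via amine coupling, measured at 25 °C with HBS-EP+ as running buffer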).
T1 construct: also called CD3 (CD3 epsilon)
T1 sequence (P07766 23-126): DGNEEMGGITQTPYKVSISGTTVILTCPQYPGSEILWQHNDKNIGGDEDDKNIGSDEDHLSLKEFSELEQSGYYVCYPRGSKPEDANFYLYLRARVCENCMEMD
Description: An appropriate amount of CD3 epsilon homodimer protein was immobilized onto Sensor chip CM4 (GE Healthcare Japan Corp.) by the amine coupling method. Then, the antibody having an appropriate concentration was injected thereto as an analyte and allowed to interact with the CD3 epsilon homodimer protein on the sensor chip. Then, the sensor chip was regenerated by the injection of 10 mmol/L glycine-HCl (pH 1.5). The assay was conducted at 25 degrees C., and HBS-EP+(GE Healthcare Japan Corp.) was used as a running buffer. […] Each parameter was calculated using Biacore T200 Evaluation Software (GE Healthcare Japan Corp.).
Specifically, when the amount of the GLS3000-containing antibody bound was defined as X and the amount of the L chain one-amino acid altered form bound was defined as Y, a value of Z (ratio of amounts bound)=Y/X was used.

Row | Binder | dissociation constant KD(M) ratio of L chain altered form to GLS3000 [ratio]
1 | B1 | 1.1
2 | B2 | 1.8
3 | B3 | 2.11
4 | B4 | 1.1
5 | B5 | 1.4
6 | B6 | 2.2
7 | B7 | 1.12
8 | B8 | 23.1
9 | B9 | 39.9
10 | B10 | 33.8
11 | B11 | 0.85
12 | B12 | 1.19
13 | B13 | 15.9
14 | B14 | 0.96
15 | B15 | 36.3
16 | B16 | 39.5
17 | B17 | 0.79
18 | B18 | 0.75
19 | B19 | 0.76
20 | B20 | 0.94
21 | B21 | 26.7
22 | B22 | 0.81
